The record followed here is paper PMC11277095 (International Journal of Molecular Sciences, 2024).

This data set concerns the molecule itself. The data set is described as follows: native gel or EMSA; 10 µg purified protein mixed with hypotonic buffer, hyperosmotic resealing solution (10% v/v Pigpa) or loading buffer; Tris/glycine buffer pH 8.3, 100 V; Coomassie staining. (In general: In EMSA bound probe runs differently from free probe, usually more slowly.)

B1: Human ornithine aminotransferase variant R217A (OAT-R217A) (enzyme, UniProt P04181 26-439, looked up)
chain: TSVATKKTVQGPPTSDDIFEREYKYGAHNYHPLPVALERGKGIYLWDVEGRKYFDFLSSYSAVNQGHCHPKIVNALKSQVDKLTLTSRAFYNNVLGEYEEYITKLFNYHKVLPMNTGVEAGETACKLARKWGYTVKGIQKYKAKIVFAAGNFWGRTLSAISSSTDPTSYDGFGPFMPGFDIIPYNDLPALEAALQDPNVAAFMVEPIQGEAGVVVPDPGYLMGVRELCTRHQVLFIADEIQTGLARTGRWLAVDYENVRPDIVLLGKALSGGLYPVSAVLCDDDIMLTIKPGEHGSTYGGNPLGCRVAIAALEVLEEENLAENADKLGIILRNELMKLPSDVVTAVRGKGLLNAIVIKETKDWDAWKVCLRLRDNGLLAKPTHGDIIRFAPPLVIKEDELRESIEIINKTILSF
modifications: PLP bound to Lys292 through a Schiff base linkage
notes: Human ornithine aminotransferase, mitochondrial; construct printed as 'pET43a Δ26-439 OAT-R217A', the mature form with Arg217 changed to alanine; also called dimeric hOAT; source: E. coli BL21, purified (DEAE HiPrep FF, Sephacryl S-100)
Turning to B1, the binding result is “binds”.
